Numbering of substitutions follows the chain as printed.
B1: 1503_H05 (PG16) antibody, sister clone of 1443_C16 (antibody, V domains shown)
VH: QEKLVESGGGVVQPGGSLRLSCLASGFTFHKYGMHWVRQAPGKGLEWVALISDDGMRKYHSDSMWGRVTISRDNSKNTLYLQFSSLKVEDTAMFFCAREAGGPIWHDDVKYYDFNDGYYNYHYMDVWGKGTIVTVSS
VL: QSALTQPASVSGSPGQTITISCNGTRSDVGGFDSVSWYQQSPGKAPKVMVFDVSHRPSGISNRFSGSKSGNTASLTISGLHIEDEGDYFCSSLTDRSHRIFGGGTKVTVLG
B2: 1456_A12 (PG16) antibody, sister clone of 1443_C16 (antibody, V domains shown)
VH: B1 VH with Q1H, K3Q, S7A, K87R, I132K
VL: B1 VL with R26S, S27R, I60M, V107L
B3: 1489_I13 (PG16) antibody, sister clone of 1443_C16 (antibody, V domains shown)
VH: B1 VH with K3Q, V5L, D62N, I132T
VL: B1 VL with R26S
B4: 1469_M23 (PG16) antibody, sister clone of 1443_C16 (antibody, V domains shown)
VH: B1 VH with I132T
VL: B1 VL with K44R, V107L

target: HIV-1 JR-FL(E168K) Env on pseudovirus (HIV-1 strain JR-FL); assay: cell-based or functional assay

Row | Binder | IC50 (ug/ml), pseudovirus neutralisation, TZM-bl assay [µg/mL]
1 | B1 | 0.002
2 | B2 | 0.003
3 | B3 | 0.005
4 | B4 | 0.005

target: HIV-1 ADA Env (gp160), on transfected 293 cells or on ADA pseudovirus (HIV-1 strain ADA); assay: cell-based or functional assay

Row | Binder | IC50 (ug/ml), pseudovirus neutralisation, TZM-bl assay [µg/mL]
5 | B1 | 0.003
6 | B2 | 0.005
7 | B3 | 0.008
8 | B4 | 0.005

target: HIV-1 JR-CSF Env (gp160), on transfected 293/293T cells or on JR-CSF pseudovirus (HIV-1 isolate JR-CSF) (UniProt P20871); assay: cell-based or functional assay

Row | Binder | IC50 (ug/ml), pseudovirus neutralisation, TZM-bl assay [µg/mL]
9 | B1 | 0.001
10 | B2 | 0.001
11 | B3 | 0.002
12 | B4 | 0.002

target: HIV-1 JR-CSF(Y318A) Env on pseudovirus (HIV-1 isolate JR-CSF) (UniProt P20871); assay: cell-based or functional assay

Row | Binder | IC50 (ug/ml), pseudovirus neutralisation, TZM-bl assay [µg/mL]
13 | B1 | > 1
14 | B2 | > 1
15 | B3 | > 1
16 | B4 | > 1

target: HIV-1 JR-CSF(I309A) Env on pseudovirus (HIV-1 isolate JR-CSF) (UniProt P20871); assay: cell-based or functional assay

Row | Binder | IC50 (ug/ml), pseudovirus neutralisation, TZM-bl assay [µg/mL]
17 | B1 | > 1
18 | B2 | > 1
19 | B3 | > 1
20 | B4 | > 1

target: HIV-1 92RW020 Env on pseudovirus (HIV-1 strain 92RW020); assay: cell-based or functional assay

Row | Binder | IC50 (ug/ml), pseudovirus neutralisation, TZM-bl assay [µg/mL]
21 | B1 | 0.02
22 | B2 | 0.05
23 | B3 | 0.03
24 | B4 | 0.05
